Reference: patent US5039791A, “Peptide fragments of tissue plasminogen activator” (Monsanto Company, priority 1989, dated 1991)
Where no end group is shown, it is not given here.

target: T1, fibrin (Homo sapiens, UniProt P02671+P02675+P02679); test: Fibrin binding: binding of tPA to fibrin, tPA antigen in supernatant by ELISA; conditions: 15 μg/ml peptide; 200 ng/ml single chain melanoma tPA, 200 μg/ml human fibrinogen; no peptide = 48
T1 construct: purchased Kabi Vitrum
T1 sequence (P02671 20-644 isoform P02671-2 limits assumed): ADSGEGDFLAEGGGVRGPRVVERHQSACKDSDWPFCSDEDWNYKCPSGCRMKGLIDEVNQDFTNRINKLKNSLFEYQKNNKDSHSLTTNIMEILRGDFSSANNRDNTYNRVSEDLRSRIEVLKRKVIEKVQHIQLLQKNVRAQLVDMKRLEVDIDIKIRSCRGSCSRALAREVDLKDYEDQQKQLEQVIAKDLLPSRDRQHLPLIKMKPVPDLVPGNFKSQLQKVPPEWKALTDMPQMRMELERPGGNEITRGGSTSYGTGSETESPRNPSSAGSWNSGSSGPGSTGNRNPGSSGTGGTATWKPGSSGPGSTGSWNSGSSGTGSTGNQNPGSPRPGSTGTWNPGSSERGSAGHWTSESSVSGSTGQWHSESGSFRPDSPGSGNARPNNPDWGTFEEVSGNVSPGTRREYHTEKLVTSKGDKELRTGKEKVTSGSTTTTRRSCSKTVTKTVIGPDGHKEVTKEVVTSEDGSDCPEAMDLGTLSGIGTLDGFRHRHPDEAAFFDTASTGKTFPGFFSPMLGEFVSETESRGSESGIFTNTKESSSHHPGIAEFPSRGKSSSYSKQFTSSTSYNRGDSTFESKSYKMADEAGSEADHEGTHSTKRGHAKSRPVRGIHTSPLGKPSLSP
T1 sequence (P02675 45-491 limits assumed): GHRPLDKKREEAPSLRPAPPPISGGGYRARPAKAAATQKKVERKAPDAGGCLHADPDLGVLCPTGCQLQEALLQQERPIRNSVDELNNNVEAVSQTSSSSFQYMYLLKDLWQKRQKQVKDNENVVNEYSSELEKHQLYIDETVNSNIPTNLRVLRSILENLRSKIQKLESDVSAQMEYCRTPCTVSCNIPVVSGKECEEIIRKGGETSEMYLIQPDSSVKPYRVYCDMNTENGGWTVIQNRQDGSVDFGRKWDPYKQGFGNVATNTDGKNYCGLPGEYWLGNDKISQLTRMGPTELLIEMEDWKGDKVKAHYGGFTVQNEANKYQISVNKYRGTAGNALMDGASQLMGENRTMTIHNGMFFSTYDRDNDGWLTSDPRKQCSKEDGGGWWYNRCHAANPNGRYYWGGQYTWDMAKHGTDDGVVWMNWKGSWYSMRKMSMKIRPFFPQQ
T1 sequence (P02679 27-437 isoform P02679-2 limits assumed): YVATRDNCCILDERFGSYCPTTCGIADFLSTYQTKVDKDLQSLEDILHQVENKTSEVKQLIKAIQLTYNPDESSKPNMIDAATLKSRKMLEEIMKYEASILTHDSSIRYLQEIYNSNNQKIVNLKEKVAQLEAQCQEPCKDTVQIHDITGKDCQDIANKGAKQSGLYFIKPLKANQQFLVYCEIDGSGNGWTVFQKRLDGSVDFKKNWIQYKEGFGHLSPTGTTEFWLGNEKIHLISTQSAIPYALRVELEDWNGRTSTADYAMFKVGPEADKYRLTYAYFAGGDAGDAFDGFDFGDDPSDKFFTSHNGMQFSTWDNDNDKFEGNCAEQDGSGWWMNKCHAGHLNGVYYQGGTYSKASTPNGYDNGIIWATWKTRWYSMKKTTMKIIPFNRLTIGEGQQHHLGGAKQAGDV
Method: Binding of tPA to fibrin was measured using the conventional method of Rijken et al., J. Biol. Chem. 257, 2920-2925 (1982). This method involves mixing thrombin with a solution containing tPA and fibrinogen, centrifuging the resulting clot and measuring the concentration of tPA antigen in the supernatant. In a final volume of 200 μl, the following were combined: 200 ng/ml single chain melanoma tPA, 200 μg/ml human fibrinogen, 15 μg/ml tPA peptide, 1.1 mg/ml bovine serum albumin, 0.55 mg/ml bovine gamma globulin and 10 mM ε-amino caproic acid in PBSAT. Controls omitted fibrinogen, peptide or both. Mixtures were clotted by the addition of 1 unit/ml bovine thrombin, incubated one hour at room temperature and centrifuged. tPA antigen in the supernatant was measured by conventional ELISA and the percentage bound calculated by difference using the antigen level of a control mixture with no fibrinogen as 0% bound. […] An ELISA assay kit for tPA and PAI-1 was purchased from American Diagnostica Inc. and assays were performed according to printed protocols supplied by the manufacturer with the kit except that a single lot of melanoma tPA from American Diagnostica Inc. (product 111, lot 47-01) was used as the antigen standard throughout this work and 5.0 mg/ml of BSA and 2.5 mg/ml of bovine gamma globulin were included in ELISA buffers.

| Substance | % Bound (binding of tPA to fibrin) [%] |
| --- | --- |
| CDVPSCSTCGLRQYSQPQFRIKGGL-amide (CDVPSCSTCGLRQYSQPQFRIKGGL-NH2; cysteine pairing not given here) [Peptide 169, 25 amino acid synthetic peptide amide fragment of native human tPA] | 55 |
| CNSGRAQCHSVPVKSCSEPRCFNGG-amide (CNSGRAQCHSVPVKSCSEPRCFNGG-NH2; cysteine pairing not given here) [Peptide 147, 25 amino acid synthetic peptide amide fragment of native human tPA] | 55 |
| DGDAKPWCHVLKNRRLTWEYCDVPS-amide (DGDAKPWCHVLKNRRLTWEYCDVPS-NH2; cysteine pairing not given here) [Peptide 167, 25 amino acid synthetic peptide amide fragment of native human tPA] | 50 |
| EFCSTPACSEGNSDCYFGNGSAYRG [Peptide 160, 25 amino acid synthetic peptide fragment of native human tPA] | 56 |
| ERFPPHHLTVILGRTYRVVPGEEEQ-NH2 [Peptide 176] | 53 |
| ERLKEAHVRLYPSSRCTSQHLLNRT-NH2 [Peptide 186] | 50 |
| GNSDCYFGNGSAYRGTHSLTESGAS-NH2 [Peptide 161] | 57 |
| LCAGDTRSGGPQANLHDACQGDSGG-amide [Peptide 189, 25 amino acid synthetic peptide amide fragment of native human tPA] | 50 |
| LKNRRLTWEYCDVPSCSTCGLRQYS [Peptide 168, 25 amino acid synthetic peptide fragment of native human tPA] | 54 |
| LLNRTVTDNMLCAGDTRSGGPQANL-NH2 [Peptide 188] | 52 |
| LRSNRVEYCWCNSGRAQCHSVPVKS-amide (LRSNRVEYCWCNSGRAQCHSVPVKS-NH2; cysteine pairing not given here) [Peptide 146, 25 amino acid synthetic peptide amide fragment of native human tPA] | 54 |
| LYFSDFVCQCPEGFAGKCCEIDTRA [Peptide 150, 25 amino acid synthetic peptide fragment of native human tPA] | 52 |
| PEGFAGKCCEIDTRATCYEDQGISY-amide (PEGFAGKCCEIDTRATCYEDQGISY-NH2; cysteine pairing not given here) [Peptide 151, 25 amino acid synthetic peptide amide fragment of native human tPA] | 53 |
| QESSVVRTVCLPPADLQLPDWTECE-amide [Peptide 182, 25 amino acid synthetic peptide amide fragment of native human tPA] | 52 |
| QLKSDSSRCAQESSVVRTVCLPPAD-amide (QLKSDSSRCAQESSVVRTVCLPPAD-NH2; cysteine pairing not given here) [Peptide 181, 25 amino acid synthetic peptide amide fragment of native human tPA] | 49 |
| QQHQSWLRPVLRSNRVEYCWCNSGR-amide (QQHQSWLRPVLRSNRVEYCWCNSGR-NH2; cysteine pairing not given here) [Peptide 145, 25 amino acid synthetic peptide amide fragment of native human tPA] | 56 |
| RRGARSYQVICRDEKTQMIYQQHQS [Peptide 143] | 57 |
| SMILIGKVYTAQNPSAQALGLGKHN-NH2 [Peptide 164] | 53 |
| SPSQEIHARFRRGARSYQVICRDEK [Peptide 142] | 58 |
| TAESGAECTNWNSSALAQKPYSGRR-NH2 [Peptide 154] | 56 |
| WNSSALAQKPYSGRRPDAIRLGLGN [Peptide 155] | 54 |
| YPSSRCTSQHLLNRTVTDNMLCAGD-amide [Peptide 187, 25 amino acid synthetic peptide amide fragment of native human tPA] | 51 |
| YSGRRPDAIRLGLGNHNYCRNPDRD-NH2 [Peptide 156] | 52 |
| YVFKAGKYSSEFCSTPACSEGNSDC-amide (YVFKAGKYSSEFCSTPACSEGNSDC-NH2; cysteine pairing not given here) [Peptide 159, 25 amino acid synthetic peptide amide fragment of native human tPA] | 54 |
